Assays:
Grb2 SH2 = Grb2 SH2 (UniProt P62993); experiment: SH2 binding enrichment of the phosphorylated peptide, bacterial display (enrichment ratio); higher = better substrate or ligand; peptides without Tyr show the background
c-Src SH2 = experiment: as above
SHP2-C SH2 = experiment: as above
EPHB2 = EPHB2 (UniProt P29323); experiment: phosphorylation enrichment, bacterial display (enrichment ratio); higher = better substrate or ligand; peptides without Tyr show the background
EPHB1 = EPHB1 (UniProt P54762); experiment: as above
FGFR3 = FGFR3 (UniProt P22607); experiment: as above
MERTK = MERTK (UniProt Q12866); experiment: as above
c-Src = experiment: as above
c-Abl (mouse) = experiment: as above
Hck = Hck (UniProt P08631); experiment: as above
Jak2 = Jak2 (UniProt O60674); experiment: as above
Fes = Fes (UniProt P07332); experiment: as above
Fyn = Fyn (UniProt P06241); experiment: as above
Fer (mouse) = experiment: as above
AncSZ = experiment: as above
FGFR1 = FGFR1 (UniProt P11362); experiment: as above
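For SH2 binding enrichment of the phosphorylated peptide, bacterial display in this document: peptide library displayed on the E. coli surface as eCPX fusions, selected cells deep-sequenced, score is each peptide's frequency after selection divided by its frequency in the input.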
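For phosphorylation enrichment, bacterial display in this document: 11-residue human phosphosite peptides and single-mutation variants displayed on the E. coli surface, counted by deep sequencing, each peptide's frequency after selection divided by its frequency in the unselected input library; frequency after pTyr selection over input frequency; kinase dosed for 20-30% of maximal phosphorylation in three min.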

Sequence of EPHB1 (P54762 whole entry, looked up): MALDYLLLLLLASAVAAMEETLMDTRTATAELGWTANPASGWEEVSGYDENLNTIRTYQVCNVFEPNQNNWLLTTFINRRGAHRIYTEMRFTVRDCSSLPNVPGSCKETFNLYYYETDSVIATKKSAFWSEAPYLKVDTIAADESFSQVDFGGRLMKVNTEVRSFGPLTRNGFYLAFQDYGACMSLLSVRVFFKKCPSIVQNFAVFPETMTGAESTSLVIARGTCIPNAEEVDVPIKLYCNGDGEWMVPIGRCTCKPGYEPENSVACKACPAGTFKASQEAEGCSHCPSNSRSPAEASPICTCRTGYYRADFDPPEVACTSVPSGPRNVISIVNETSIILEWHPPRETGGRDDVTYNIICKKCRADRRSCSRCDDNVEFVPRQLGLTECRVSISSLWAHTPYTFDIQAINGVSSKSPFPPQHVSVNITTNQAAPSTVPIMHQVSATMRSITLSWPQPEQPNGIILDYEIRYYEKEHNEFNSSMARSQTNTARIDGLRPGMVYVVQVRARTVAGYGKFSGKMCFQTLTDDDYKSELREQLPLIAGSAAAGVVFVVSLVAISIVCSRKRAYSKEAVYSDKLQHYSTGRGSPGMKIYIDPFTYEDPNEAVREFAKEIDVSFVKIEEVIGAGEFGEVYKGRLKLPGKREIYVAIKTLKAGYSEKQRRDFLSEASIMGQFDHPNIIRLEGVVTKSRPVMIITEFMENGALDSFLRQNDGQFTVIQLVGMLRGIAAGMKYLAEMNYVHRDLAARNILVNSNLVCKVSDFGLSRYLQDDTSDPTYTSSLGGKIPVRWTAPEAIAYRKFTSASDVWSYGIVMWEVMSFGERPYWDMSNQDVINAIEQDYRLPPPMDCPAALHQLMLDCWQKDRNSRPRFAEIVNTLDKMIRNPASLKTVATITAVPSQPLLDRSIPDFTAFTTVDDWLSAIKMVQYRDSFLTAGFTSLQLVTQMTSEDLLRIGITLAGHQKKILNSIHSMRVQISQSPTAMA
Sequence of Fyn (P06241 whole entry, looked up): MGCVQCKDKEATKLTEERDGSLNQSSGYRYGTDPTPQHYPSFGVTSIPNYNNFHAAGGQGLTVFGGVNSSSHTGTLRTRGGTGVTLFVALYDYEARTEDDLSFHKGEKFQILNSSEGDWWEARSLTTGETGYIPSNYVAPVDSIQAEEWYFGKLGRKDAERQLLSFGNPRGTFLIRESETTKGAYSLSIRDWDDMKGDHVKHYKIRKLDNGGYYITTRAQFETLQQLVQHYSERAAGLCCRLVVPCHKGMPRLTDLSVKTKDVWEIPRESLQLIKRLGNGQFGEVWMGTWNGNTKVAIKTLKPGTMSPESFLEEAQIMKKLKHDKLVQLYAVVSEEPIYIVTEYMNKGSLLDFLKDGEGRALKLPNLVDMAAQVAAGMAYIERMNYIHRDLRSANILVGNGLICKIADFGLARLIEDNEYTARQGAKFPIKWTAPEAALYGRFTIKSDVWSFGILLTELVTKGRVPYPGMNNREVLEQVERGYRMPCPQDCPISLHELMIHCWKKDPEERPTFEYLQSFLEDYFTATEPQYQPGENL
Sequence of MERTK (Q12866 whole entry, looked up): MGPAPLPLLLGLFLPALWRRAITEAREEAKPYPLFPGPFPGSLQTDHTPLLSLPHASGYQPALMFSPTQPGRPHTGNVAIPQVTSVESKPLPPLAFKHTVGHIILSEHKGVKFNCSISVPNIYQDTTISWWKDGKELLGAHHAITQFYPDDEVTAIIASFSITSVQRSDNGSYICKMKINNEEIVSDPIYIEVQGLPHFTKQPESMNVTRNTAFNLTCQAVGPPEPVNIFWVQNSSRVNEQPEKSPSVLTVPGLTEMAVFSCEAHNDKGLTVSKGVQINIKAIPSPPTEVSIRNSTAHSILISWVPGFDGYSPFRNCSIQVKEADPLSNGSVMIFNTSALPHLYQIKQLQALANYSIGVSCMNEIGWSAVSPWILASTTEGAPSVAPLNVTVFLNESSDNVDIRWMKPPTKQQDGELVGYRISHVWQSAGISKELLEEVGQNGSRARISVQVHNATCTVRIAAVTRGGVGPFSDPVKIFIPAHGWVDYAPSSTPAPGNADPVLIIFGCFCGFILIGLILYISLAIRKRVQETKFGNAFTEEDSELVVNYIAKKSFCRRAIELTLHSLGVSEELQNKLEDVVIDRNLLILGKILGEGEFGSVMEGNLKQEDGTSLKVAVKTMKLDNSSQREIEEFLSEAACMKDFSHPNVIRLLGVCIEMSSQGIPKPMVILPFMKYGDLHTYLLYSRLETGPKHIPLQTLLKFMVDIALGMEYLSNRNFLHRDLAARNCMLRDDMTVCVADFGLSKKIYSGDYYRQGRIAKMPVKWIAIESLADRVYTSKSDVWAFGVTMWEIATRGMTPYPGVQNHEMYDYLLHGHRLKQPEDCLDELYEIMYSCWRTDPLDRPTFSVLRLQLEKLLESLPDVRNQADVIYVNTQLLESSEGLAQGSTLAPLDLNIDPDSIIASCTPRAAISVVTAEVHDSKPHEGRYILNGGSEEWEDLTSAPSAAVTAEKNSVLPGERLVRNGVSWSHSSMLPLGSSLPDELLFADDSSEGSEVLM
Sequence of Hck (P08631 whole entry, looked up): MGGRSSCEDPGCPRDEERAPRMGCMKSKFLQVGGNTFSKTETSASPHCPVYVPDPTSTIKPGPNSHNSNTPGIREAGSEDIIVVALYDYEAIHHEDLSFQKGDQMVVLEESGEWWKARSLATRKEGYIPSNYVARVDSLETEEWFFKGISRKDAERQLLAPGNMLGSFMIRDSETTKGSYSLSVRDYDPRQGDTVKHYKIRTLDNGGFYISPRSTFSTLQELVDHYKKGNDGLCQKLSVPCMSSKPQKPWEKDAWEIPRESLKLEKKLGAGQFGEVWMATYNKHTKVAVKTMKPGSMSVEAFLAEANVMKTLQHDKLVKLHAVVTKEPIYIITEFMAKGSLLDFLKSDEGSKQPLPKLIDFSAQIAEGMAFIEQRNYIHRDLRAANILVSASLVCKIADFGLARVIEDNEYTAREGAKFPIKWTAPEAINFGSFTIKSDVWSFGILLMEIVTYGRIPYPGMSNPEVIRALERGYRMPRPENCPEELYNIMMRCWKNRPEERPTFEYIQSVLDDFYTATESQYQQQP
Sequence of Jak2 (O60674 whole entry, looked up): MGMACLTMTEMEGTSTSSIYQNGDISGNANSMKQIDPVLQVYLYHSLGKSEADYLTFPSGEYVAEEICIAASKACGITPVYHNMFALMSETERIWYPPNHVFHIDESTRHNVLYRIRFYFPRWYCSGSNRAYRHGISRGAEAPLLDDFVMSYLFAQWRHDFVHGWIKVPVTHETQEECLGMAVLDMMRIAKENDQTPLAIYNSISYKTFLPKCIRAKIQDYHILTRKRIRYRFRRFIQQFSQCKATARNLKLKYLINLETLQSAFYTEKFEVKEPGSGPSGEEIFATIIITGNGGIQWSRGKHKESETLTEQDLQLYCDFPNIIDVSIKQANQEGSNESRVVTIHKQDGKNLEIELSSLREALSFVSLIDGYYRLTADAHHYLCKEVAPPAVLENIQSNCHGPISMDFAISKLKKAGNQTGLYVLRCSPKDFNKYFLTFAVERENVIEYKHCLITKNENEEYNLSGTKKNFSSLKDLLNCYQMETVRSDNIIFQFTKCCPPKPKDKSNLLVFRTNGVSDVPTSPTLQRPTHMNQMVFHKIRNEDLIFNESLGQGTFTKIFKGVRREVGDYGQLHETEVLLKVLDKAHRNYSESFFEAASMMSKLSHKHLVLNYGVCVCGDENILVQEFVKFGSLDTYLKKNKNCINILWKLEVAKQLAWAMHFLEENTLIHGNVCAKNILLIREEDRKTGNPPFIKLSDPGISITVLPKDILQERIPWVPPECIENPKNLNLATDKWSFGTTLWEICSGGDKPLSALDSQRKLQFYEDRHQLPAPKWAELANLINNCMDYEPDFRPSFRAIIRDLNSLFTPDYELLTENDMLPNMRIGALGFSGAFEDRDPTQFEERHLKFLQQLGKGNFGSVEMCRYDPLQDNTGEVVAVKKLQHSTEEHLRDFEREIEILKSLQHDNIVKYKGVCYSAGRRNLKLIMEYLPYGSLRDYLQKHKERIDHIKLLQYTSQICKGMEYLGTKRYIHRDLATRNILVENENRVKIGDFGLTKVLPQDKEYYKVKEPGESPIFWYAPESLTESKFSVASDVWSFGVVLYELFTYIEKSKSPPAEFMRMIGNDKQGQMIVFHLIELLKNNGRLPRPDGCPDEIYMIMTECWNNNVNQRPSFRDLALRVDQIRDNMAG
Sequence of FGFR1 (P11362 whole entry, looked up, the tested form may be a part): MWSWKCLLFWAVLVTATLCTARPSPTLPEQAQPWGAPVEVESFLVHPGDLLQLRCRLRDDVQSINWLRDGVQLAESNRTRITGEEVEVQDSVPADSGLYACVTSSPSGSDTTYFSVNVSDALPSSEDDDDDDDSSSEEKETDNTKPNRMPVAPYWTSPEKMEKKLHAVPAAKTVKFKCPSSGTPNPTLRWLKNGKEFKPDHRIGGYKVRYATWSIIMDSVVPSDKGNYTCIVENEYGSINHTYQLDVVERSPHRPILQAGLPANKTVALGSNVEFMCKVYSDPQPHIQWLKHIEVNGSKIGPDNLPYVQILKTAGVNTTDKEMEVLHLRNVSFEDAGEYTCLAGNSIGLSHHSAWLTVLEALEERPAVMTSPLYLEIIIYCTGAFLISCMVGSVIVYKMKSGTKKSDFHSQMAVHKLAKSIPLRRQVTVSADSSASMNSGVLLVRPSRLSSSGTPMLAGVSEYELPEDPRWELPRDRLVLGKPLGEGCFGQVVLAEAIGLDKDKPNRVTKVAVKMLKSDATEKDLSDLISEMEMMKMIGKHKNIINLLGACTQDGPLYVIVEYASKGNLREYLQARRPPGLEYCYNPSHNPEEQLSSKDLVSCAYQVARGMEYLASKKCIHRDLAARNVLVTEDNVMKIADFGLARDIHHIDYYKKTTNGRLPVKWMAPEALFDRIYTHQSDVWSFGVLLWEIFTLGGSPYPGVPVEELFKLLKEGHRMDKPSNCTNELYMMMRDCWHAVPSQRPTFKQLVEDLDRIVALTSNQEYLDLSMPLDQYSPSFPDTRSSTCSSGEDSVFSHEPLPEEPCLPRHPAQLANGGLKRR

| Sequence | SH2 binding enrichment (Grb2 SH2) | SH2 binding enrichment (c-Src SH2) | SH2 binding enrichment (SHP2-C SH2) | phosphorylation enrichment (EPHB2) | phosphorylation enrichment (EPHB1) | phosphorylation enrichment (FGFR3) | phosphorylation enrichment (MERTK) | phosphorylation enrichment (c-Src) | phosphorylation enrichment (c-Abl (mouse)) | phosphorylation enrichment (Hck) | phosphorylation enrichment (Jak2) | phosphorylation enrichment (Fes) | phosphorylation enrichment (Fyn) | phosphorylation enrichment (Fer (mouse)) | phosphorylation enrichment (AncSZ) | phosphorylation enrichment (FGFR1) |
| --- | --- | --- | --- | --- | --- | --- | --- | --- | --- | --- | --- | --- | --- | --- | --- | --- |
| ENGPYYTSYPP [GDAP2_Y488] | 0.761 | 0.763 | 0.708 | 1 | 0.658 | 1.89 | 5.54 | 3.52 | 1.33 | 2.14 | 0.703 | 0.83 | 3.58 | 0.707 | 1.31 | 2.7 |
| ENPLDYGSAWA [AR_Y395] | 0.716 | 0.454 | 0.806 | 0.565 | 0.46 | 0.744 | 0.395 | 0.476 | 0.709 | 0.559 | 0.991 | 1.08 | 0.527 | 0.524 | 0.992 | 0.491 |
| ENQEIYRKAFD [KPNA1_Y493_Q494R] | 0.814 | 0.397 | 0.719 | 0.798 | 0.618 | 0.627 | 0.393 | 0.451 | 0.812 | 0.499 | 1.3 | 1.13 | 0.431 | 0.55 | 0.883 | 0.537 |
| EPAVLYNLKDR [MYH7_Y103] | 0.774 | 0.374 | 0.867 | 0.537 | 0.411 | 0.539 | 0.473 | 0.461 | 0.571 | 0.662 | 0.585 | 0.835 | 0.583 | 0.455 | 0.722 | 0.521 |
| EQLGEYKFQNA [ALB_Y425] | 0.793 | 0.518 | 0.416 | 0.415 | 0.461 | 0.5 | 0.324 | 0.367 | 0.774 | 0.415 | 0.715 | 0.77 | 0.394 | 0.351 | 0.824 | 0.471 |

Continued, in another order:

| SH2 binding enrichment (Grb2 SH2) | SH2 binding enrichment (c-Src SH2) | SH2 binding enrichment (SHP2-C SH2) | Sequence | phosphorylation enrichment (EPHB2) | phosphorylation enrichment (EPHB1) | phosphorylation enrichment (FGFR3) | phosphorylation enrichment (MERTK) | phosphorylation enrichment (c-Src) | phosphorylation enrichment (c-Abl (mouse)) | phosphorylation enrichment (Hck) | phosphorylation enrichment (Jak2) | phosphorylation enrichment (Fes) | phosphorylation enrichment (Fyn) | phosphorylation enrichment (Fer (mouse)) | phosphorylation enrichment (AncSZ) | phosphorylation enrichment (FGFR1) |
| --- | --- | --- | --- | --- | --- | --- | --- | --- | --- | --- | --- | --- | --- | --- | --- | --- |
| 1.14 | 0.466 | 0.676 | EPVSDYINANV [PTPN11_Y304_I309V] | 0.486 | 0.42 | 0.585 | 0.4 | 0.37 | 0.567 | 0.428 | 0.754 | 0.855 | 0.393 | 0.384 | 1.03 | 0.541 |
| 1.05 | 1.19 | 0.899 | EQKRYYNAMKK [SCN5A_Y1495_K1493R] | 0.317 | 0.356 | 0.465 | 0.547 | 0.371 | 0.447 | 0.312 | 0.605 | 0.576 | 0.457 | 0.399 | 0.586 | 0.348 |
| 0.923 | 0.72 | 0.654 | EQSNPYMVLDI [ROCK2_Y1197] | 0.616 | 0.577 | 1.1 | 2.28 | 3.73 | 0.737 | 1.38 | 1.24 | 1.09 | 2.5 | 3.79 | 1.19 | 1.11 |

From the supplement of paper PMC10065799, “High-throughput profiling of sequence recognition by tyrosine kinases and SH2 domains using bacterial peptide display” (eLife, 2023)
